Test results as given in publication PMC5575768.

Biological target: filamentous actin from rabbit skeletal muscle (rabbit) (UniProt P68135)
Assay: differential scanning calorimetry

α-tropomyosin, wild type, with N-terminal ala-ser (natural protein)
melt temperature of the Tm–actin interaction: 47.2 °C
melt temperature of the Tn–Tm–actin interaction (Tn with cTnT R92L): 47.3 °C

α-tropomyosin D230N, with N-terminal ala-ser (natural protein)
melt temperature of the Tm–actin interaction: 47.9 °C
